Literature values as cited in article PMC3623542.
Where two headings read alike, the source gives them in different places.

What was measured:
DnaK (Escherichia coli) [1] = target: DnaK (Escherichia coli) (UniProt P0A6Y8); assay: NMR
DnaK (Escherichia coli) [2] = target: DnaK (Escherichia coli) (UniProt P0A6Y8)
DnaK (Escherichia coli) [3] = target: DnaK (Escherichia coli) (UniProt P0A6Y8); remark: listed apart in the source
DnaK (Escherichia coli) [4] = target: DnaK (Escherichia coli) (UniProt P0A6Y8); assay: SPR
DnaK (Escherichia coli) [5] = target: DnaK (Escherichia coli) (UniProt P0A6Y8); assay: SPR; remark: listed apart in the source
DnaK (Escherichia coli) [6] = target: DnaK (Escherichia coli) (UniProt P0A6Y8); assay: SPR; remark: listed apart in the source

Chain of DnaJ (P08622 2-376): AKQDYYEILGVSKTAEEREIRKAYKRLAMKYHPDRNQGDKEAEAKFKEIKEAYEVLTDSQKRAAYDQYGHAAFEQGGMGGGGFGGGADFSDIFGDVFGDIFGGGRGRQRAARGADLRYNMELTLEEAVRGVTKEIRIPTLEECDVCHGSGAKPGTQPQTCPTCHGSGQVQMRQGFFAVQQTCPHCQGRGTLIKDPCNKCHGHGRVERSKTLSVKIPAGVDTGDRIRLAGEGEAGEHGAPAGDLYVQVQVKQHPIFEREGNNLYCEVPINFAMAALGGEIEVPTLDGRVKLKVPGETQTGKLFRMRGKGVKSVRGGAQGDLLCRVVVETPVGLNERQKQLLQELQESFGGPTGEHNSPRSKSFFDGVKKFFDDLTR
Chain of DnaK (Escherichia coli) (P0A6Y8 2-638): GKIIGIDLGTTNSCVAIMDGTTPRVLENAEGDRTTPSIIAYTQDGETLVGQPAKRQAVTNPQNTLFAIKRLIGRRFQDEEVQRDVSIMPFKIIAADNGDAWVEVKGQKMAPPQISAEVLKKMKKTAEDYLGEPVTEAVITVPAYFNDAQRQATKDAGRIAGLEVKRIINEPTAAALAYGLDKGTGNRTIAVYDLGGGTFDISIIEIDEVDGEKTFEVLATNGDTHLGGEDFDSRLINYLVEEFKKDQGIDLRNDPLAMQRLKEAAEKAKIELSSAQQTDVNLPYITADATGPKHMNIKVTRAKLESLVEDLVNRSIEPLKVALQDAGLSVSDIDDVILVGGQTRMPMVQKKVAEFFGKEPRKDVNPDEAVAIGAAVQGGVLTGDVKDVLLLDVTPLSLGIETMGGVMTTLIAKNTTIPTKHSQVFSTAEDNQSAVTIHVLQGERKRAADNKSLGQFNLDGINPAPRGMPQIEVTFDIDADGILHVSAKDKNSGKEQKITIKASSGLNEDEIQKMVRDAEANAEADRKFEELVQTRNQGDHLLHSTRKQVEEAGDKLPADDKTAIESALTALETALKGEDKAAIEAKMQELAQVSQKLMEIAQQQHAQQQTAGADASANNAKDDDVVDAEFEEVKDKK
Chain of DnaJ 1-75 (P08622 1-75): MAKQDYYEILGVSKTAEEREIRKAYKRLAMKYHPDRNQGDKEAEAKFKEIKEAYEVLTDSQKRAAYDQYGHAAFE

Kd (DnaK (Escherichia coli) [1])	Kd (DnaK (Escherichia coli) [2])	Kd (DnaK (Escherichia coli) [3])	Kd (DnaK (Escherichia coli) [4])	Kd (DnaK (Escherichia coli) [5])	Kd (DnaK (Escherichia coli) [6])	Substance
10000 nM	–	–	–	–	–	DnaJ 1-75 (from UniProt P08622)
–	140 nM	> 2000 nM	300 nM	> 1000 nM	70 nM	DnaJ (from UniProt P08622)
